From patent US20090311693A1

Biological target: SK2 or SK3 channels (apamin-sensitive channels of MDA-MB-435s cells)
Assay: cell-based or functional assay

Work on “apamin (from UniProt P01500 28-45) (peptide)” yielded a block of whole-cell outward K+ currents in MDA-MB-435s cells (patch-clamp), IC50 of under 0.1 nM.
